This note sets out measurements from the nanobody polyreactivity screen of Harvey et al. (2022).

The series can be described thus: yeast display, Sf9 membrane polyspecificity reagent, FACS + sequencing; frameworks hold sequencing errors. The procedure, abridged: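 Nanobodies came from a synthetic yeast display library in Saccharomyces cerevisiae BJ5465, induced with galactose for 36–48 hours and stained for 1 hour at 4 °C with 10% biotinylated, detergent-solubilized Sf9 membrane reagent. Cells were enriched on streptavidin microbeads and then FACS-sorted, with low and high (top ~1%) gates set on anti-HA fluorescence for expression and streptavidin fluorescence for reagent binding. Each polyreactivity label reflects the gate a clone came from. Genes were amplified by colony PCR, sequenced by MiSeq 2 × 250 and filtered by CDR length.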
Regarding “QVQLVESGGGLVEEGGSLRLSCAASGSIFYRNDMGWYRQAPGKERELVAAISWSGGRTYYADSVKGRFTISRDNAKNTVYLQMNSLKPEDTAVYYCAAFRHRQSSDNGYDYWGQGTQVTVSS”, the “polyreactivity (PSR sort gate)” value is “high polyreactivity”.

With “QVQLVESGGGLVHAGCSLRLSCAAYGRNFYRYAMGWYRQAPGKERALVAAISGSVGSTYADTEKGRFTSSRDNAKNTVYLQMNSLKPEDTAVYYCARESYRRYGAYDYWGQGTQVTESS”, the “polyreactivity (PSR sort gate)” value is listed as “low polyreactivity”.

Consider “QVQLVESGGGLVHAGGILRLSCAASGRTFRYYTMGWYRQEPGKERELVAAISSGGGNTYYADSVKGRFTISRDNAKNTVYLQMNSLKPEDTAVYYCAVPWYTRESGAYDYWGQGSQVTVSS”, for which the “polyreactivity (PSR sort gate)” value was “high polyreactivity”.

In the case of “QVQLVESGGGLVHAGGRLRLSCAASGRTFGFYTMGWYRQPPGKERELVAGISRGGSTTYADSVKGRFTISRDNAKNTVYLQMNSLKPEDTAVYYCNADRSHYWLPYGVRFDYWGQGSQVTVSS”, the “polyreactivity (PSR sort gate)” value is on record as “low polyreactivity”.

Take “QVQLVESGGGLVHAGGRLRLSCAASGRTFGPYVMGWYRQSPGKERELVASISSADSTYYADSVKVRFTFSRDNAKNTFYLQMNSLKPEDTAVYYCAAEWYDYLYRMDYWGQGTQVTVSS”: the “polyreactivity (PSR sort gate)” value is listed as “low polyreactivity”.

With “QVQLVESGGGLVHAGGRLRLSCAASGSTFSPYAMGWYRQPPGKERELVAAITRSGGRTYYADSVKGRFTISRDNAKNTVYLQMNSLKPEDTAVYYCAARNYKPYGYYRIYDSWGQGTQVTVSS”, the “polyreactivity (PSR sort gate)” value is “high polyreactivity”.

With “QVQLVESGGGLVHAGGSIRLSCAASGRIFDSNAMGRYRQAPGKEREVVAAITYSGGGTFYADSVKGRFTSSRDNAKNTVYLQMNCLKPEDTAVYYCNKLPHYFGPVYWFKGDDGYWGQGTQVTVTS”, the “polyreactivity (PSR sort gate)” value was “high polyreactivity”.

For the sequence “QVQLVESGGGLVHAGGSLLLSCDATGISLVRYSMGWYRQAPGKELELVAAISGSGGSTRYADSVKGRFTISRDNAKNTVYLQMNSMIPEDSAVYYCAARGAGPLDNHYSWGQGKQVTVSS”, the “polyreactivity (PSR sort gate)” value is “high polyreactivity”.

As for “QVQLVESGGGLVHAGGSLRLSCAASAFIFLFYTMGSYRQAPGKERELVAAITSVGNTNYADSVKGRFSISRDNAKNTVFLQINSLKPEDTAVYYCAADTTDPGGAYQLMDYWGQGTQVTLSS”, the “polyreactivity (PSR sort gate)” value is reported as “low polyreactivity”.

Consider “QVQLVESGGGLVHAGGSLRLSCAASGFIFDTYLMGRYRQAPGTERELVAAISRTGGRTYYADSVKGRFTISRDNAKYTVYLQMNSLNPEDTAVYYCNRAPHIAPEDYDYWGQGTQVTVSS”, for which the “polyreactivity (PSR sort gate)” value is “high polyreactivity”.

Consider “QVQLVESGGGLVHAGGSLRLSCAASGFTFAQNAMGWYRQATGKEREWVAAITRSGARTYYADSVKGRFTISRDNAKNTVYLLMNSLKPEDTPVYYCNRDASRKYGYWGQGTQVTVSS”, for which the “polyreactivity (PSR sort gate)” value was “high polyreactivity”.

Turning to “QVQLVESGGGLVHAGGSLRLSCAASGFTFGNAMGWYRQAPGKERELVAAITVNGGTTNYADSVKGRFTISRDNAKNTVYLQMNSLKPEDTAVYSCNVDTSYGPAGDYWGQGTQVTVSS”, the “polyreactivity (PSR sort gate)” value is on record as “low polyreactivity”.

Regarding “QVQLVESGGGLVHAGGSLRLSCAASGFTFGTYAMGWYRQAPGKEMELVSAISWKGGSTFYADSVKGRFTISRDNAKNTVYLQMNSLKPEDTAVYYCSKLLRRGGHRVFTYDYWGQGTQVTVSS”, the “polyreactivity (PSR sort gate)” value is given as “high polyreactivity”.

Regarding “QVQLVESGGGLVHAGGSLRLSCAASGFTFPGYAMGWYRQAPGKERELVAAISRGGAGTYYADSVKGRFTISRDNAKNTVYLQMHSLKPEDTAFYDCAAATDNPSLFQDMYYWGQGTQLTVSS”, the “polyreactivity (PSR sort gate)” value is given as “high polyreactivity”.

“QVQLVESGGGLVHAGGSLRLSCAASGFTIERYAMGWYRQAAGKERELVAVISTSGGSTYYADSVNWRYTITRDNAKNSVYLQMNSLKPEDTAVYYCAKDGSSRGDYHFGWGYYYWGQGTQVTVSS”: the “polyreactivity (PSR sort gate)” value is “low polyreactivity”.

Turning to “QVQLVESGGGLVHAGGSLRLSCAASGGIFGYYTMGWYRQAPGKERELVAAITWRGSTYYADSVKGRFTISRDNAKNTVYLQMNSLKPEDTAVYYCAARYYSPYGYWGQGTQVTVSS”, the “polyreactivity (PSR sort gate)” value was “high polyreactivity”.

For the sequence “QVQLVESGGGLVHAGGSLRLSCAASGGNFGKYAMGGYRQAPGKERELVAAITWNGGRTYYADSVKGRFTLSRDNAKNTVYLQMNSLKPEDSAVNYCNARNSHRYVYWGQGTQVTVSS”, the “polyreactivity (PSR sort gate)” value was “high polyreactivity”.

On to “QVQLVESGGGLVHAGGSLRLSCAASGITFVRYMGWYRQAPGKERELVAAISASGGSTYYADSVKGRFTISRDNAKNTVYLQLNCLKPEDTAVYYCRFLRVGSLTMDYWGQGSQVTVSS”, for which the “polyreactivity (PSR sort gate)” value was “high polyreactivity”.

Take “QVQLVESGGGLVHAGGSLRLSCAASGITFYEYTMGWYRQAPGKERELVADIDFSGDSTYYSDSVKGRFTISRDYAKNTVYLQMNSLKPEDTAVYYCAVEIIYWWYIYEYWGQGSQVTVSS”: the “polyreactivity (PSR sort gate)” value was “high polyreactivity”.

With “QVQLVESGGGLVHAGGSLRLSCAASGLTFYYYDMGWYRQAPGKERELVAAITRRGGSTYYADSVKGRFTISRDNAKNTVYLQMNSLKPEDTAVYYCNALSRTVSHEADDYWGQGTHVTVSS”, the “polyreactivity (PSR sort gate)” value is recorded as “high polyreactivity”.

Take “QVQLVESGGGLVHAGGSLRLSCAASGNTYLYYGLGWYRQAPVKEREMVAAITQSGGTTYYADSVKGRFTISRDNAKNTVYLQMNSLTPEDTAVYYCAATRYYYYWYVYDDRGDYWGQGTQVTVSS”: the “polyreactivity (PSR sort gate)” value is “low polyreactivity”.

“QVQLVESGGGLVHAGGSLRLSCAASGRIFERYAMGWYRQAPGKERELVAAISVSGSGTYYADSVKGRFTISRDNAKNTVYLQMNSLKPEDTAVYYCAADASLLGLFQGYDYWGQGTQVTVSS”: the “polyreactivity (PSR sort gate)” value is given as “low polyreactivity”.

For the sequence “QVQLVESGGGLVHAGGSLRLSCAASGRIFFDYTMGWYRQAPGKERELVAAIRTRGDSTYYADSVKGRFTISRDNAKNTFYLQMNSLKPEDTAVYYCAAAVYVRGRRESWGQGTQVTVSS”, the “polyreactivity (PSR sort gate)” value was “high polyreactivity”.

Regarding “QVQLVESGGGLVHAGGSLRLSCAASGRIFHFNAMGWYRPAPGIERELVATITKRGGRTYYADSVKGRFTISRDNAKNTVYLQMNSLKPEDTAVYYCNADQSRYSAVSGYDYWGQGTQVTVSS”, the “polyreactivity (PSR sort gate)” value is listed as “high polyreactivity”.

Take “QVQLVESGGGLVHAGGSLRLSCAASGRIFRWYAMGWYRQAPGKERELVAAISSRGGSTYYADSVKGRFTISRDNAKNTVYLQMNSLKPEDTAVYYCAADTSGWQPRYDYWGQGTQVTVSS”: the “polyreactivity (PSR sort gate)” value is recorded as “high polyreactivity”.

Consider “QVQLVESGGGLVHAGGSLRLSCAASGRIFTYNAMGWYRQAPGKERELVAAISTGGSTNYADSVKGRFTISRDNAKNTVYLQMNSLKPEDTAVYYCARRWWPTYDYWGQGTQVTVSS”, for which the “polyreactivity (PSR sort gate)” value is on record as “high polyreactivity”.

“QVQLVESGGGLVHAGGSLRLSCAASGRIFVGYTMGGYRQGPGKERELVAAISWDGDITYYADSVKGRFTISRDKAKNTVYLQMNSLKPEDTAVYYCAVDLPVSESHHTLTFELDYWGQGSQVTVSS”: the “polyreactivity (PSR sort gate)” value is on record as “low polyreactivity”.

With “QVQLVESGGGLVHAGGSLRLSCAASGRIFVGYYAMGWYRQAPGKERELVAAITIGGRTYYADSVKGRFTISRDNAKKTVYLQMKSLKPEDTAVYYCAASKYSRAYQEFGYWGQGTQVTVSS”, the “polyreactivity (PSR sort gate)” value is listed as “high polyreactivity”.

With “QVQLVESGGGLVHAGGSLRLSCAASGRTFAPYTMGWYRPAPGKERELVASISTGGSTYYADSVKGRFTISRYNAKNTVYLQMNSLKPEDTAVYYCAATGWAYGYGYGYWGQGTQVTVSS”, the “polyreactivity (PSR sort gate)” value is “low polyreactivity”.

“QVQLVESGGGLVHAGGSLRLSCAASGRTFNYYAMGWYRQAPGKERELVAAISKSTGNTYYADSVKGRFTISRDNAKNTVYLQMNSLKPEDTAVYYCAAKKRGSHVYQYDYCGQGTQVTVSS”: the “polyreactivity (PSR sort gate)” value is recorded as “low polyreactivity”.
